The chains are these.
B1: Protein disulfide isomerase Creld2 (Mus musculus), Q9CYA0 (parent)
chain: MHLLLAAAFGLLLLLPPPGAVASRKPTMCQRCRTLVDKFNQGMANTARKNFGGGNTAWEEKTLSKYEFSEIRLLEIMEGLCDSSDFECNQLLEQQEEQLEAWWQTLKKEHPNLFEWFCVHTLKACCLPGTYGPDCQECQGGSERPCSGNGYCSGDGSRQGDGSCQCHTGYKGPLCIDCTDGFFSLQRNETHSICSACDESCKTCSGPSNKDCIQCEVGWARVEDACVDVDECAAETSPCSDGQYCENVNGSYTCEDCDSTCVGCTGKGPANCKECIAGYTKESGQCTDIDECSLEEKACKRKNENCYNVPGSFVCVCPEGFEETEDACVQTAEGKVTEENPTQPPSREDL
partner: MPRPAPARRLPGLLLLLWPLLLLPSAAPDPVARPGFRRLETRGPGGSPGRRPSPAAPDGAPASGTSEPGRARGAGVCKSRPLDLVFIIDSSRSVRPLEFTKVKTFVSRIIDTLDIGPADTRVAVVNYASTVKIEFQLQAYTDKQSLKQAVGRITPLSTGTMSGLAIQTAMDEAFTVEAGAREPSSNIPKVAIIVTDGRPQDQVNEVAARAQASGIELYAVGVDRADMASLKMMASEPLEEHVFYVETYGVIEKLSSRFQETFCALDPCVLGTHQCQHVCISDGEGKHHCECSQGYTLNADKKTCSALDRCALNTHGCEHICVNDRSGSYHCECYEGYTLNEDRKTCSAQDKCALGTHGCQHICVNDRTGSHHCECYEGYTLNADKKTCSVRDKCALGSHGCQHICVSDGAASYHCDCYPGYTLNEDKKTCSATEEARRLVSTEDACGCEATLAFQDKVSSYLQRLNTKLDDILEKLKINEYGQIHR

Results on 1 variant are retold here after IntAct's records for PubMed 23956175.

This test covers variants of B1. The following applies: with matn3_human MATN3, O15232.
Turning to C32A, the “effect of a mutation on the interaction” value is “causing an interaction”.
